Test results: patent US20100003258A1 (AVEO PHARMACEUTICALS, published 2010)

B1: Humanized 15D8 (antibody, human IgG1, kappa, V domains shown)
VH: EVQLVQSGAEVKKPGESLKISCKGSGYSFTSYNMYWVRQMPGKGLEWMGYIDPYNGGTSYNQKFKGKATLTVDKSISTAYLQWSSLKASDTAMYYCAREGGNYEAWFAYWGQGTLVTVSS
VL: DIQLTQSPSSLSASVGDRVTITCSASSSVSYMYWFQQKPGKAPKPLIYLTSYLASGVPSRFSGSGSGTDFTLTISSLQPEDFATYYCQQWSSYPLTFGGGTKVEIKR
notes: Humanized variable regions with human IgG1 and human kappa constant regions; made in 293T cells; also called Hu15D8; humanized 15D8 antibody
B2: Chimeric 15D8 (antibody, human IgG1, kappa)
heavy: not shown
light: QIVLTQSPALMSASPGEKVTMTCSASSSVSYMYWYQQKPRSSPKPWIYLTSYLASGVPARFSGSGSGTSYSLTISSMEAEDAATYYCQQWSSYPLTFGAGTKLELKRTVAAPSVFIFPPSDEQLKSGTASVVCLLNNFYPREAKVQWKVDNALQSGNSQESVTEQDSKDSTYSLSSTLTLSKADYEKHKVYACEVTHQGLSSPVTKSFNRGEC
notes: Mouse variable regions with human IgG1 and human kappa constant regions; made in 293T cells; also called chimeric 15D8 antibody

Target: T1, recombinant human FGFR3 IIIc Fc fusion protein (human, UniProt P22607 23-375)
T1 construct: Bought reagent; also called rhFGFR3 IIIc Fc; not shown: Fc fragment (removable by Factor Xa)
T1 sequence (looked up): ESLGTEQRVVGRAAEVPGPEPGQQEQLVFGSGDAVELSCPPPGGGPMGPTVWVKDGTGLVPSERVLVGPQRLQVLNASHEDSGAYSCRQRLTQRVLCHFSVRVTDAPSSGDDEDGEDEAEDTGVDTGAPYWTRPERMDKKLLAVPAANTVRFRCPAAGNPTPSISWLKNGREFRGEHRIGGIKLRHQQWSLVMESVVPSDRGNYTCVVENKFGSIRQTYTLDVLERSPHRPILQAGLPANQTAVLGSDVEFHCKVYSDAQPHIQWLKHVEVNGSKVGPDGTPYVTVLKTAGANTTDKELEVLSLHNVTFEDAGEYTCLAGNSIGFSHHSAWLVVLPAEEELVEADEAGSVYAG
Experiment: kinetic exclusion assay (KinExA), antibody and rhFGFR3 IIIc Fc in solution, room temperature
Description: The binding affinities of monoclonal 15D8, chimeric 15D8, and humanized 15D8 antibodies for recombinant human FGFR3 IIIc Fc fusion protein was measured using a kinetic exclusion assay, KinExA® technology (Sapidyne Instruments, Inc.). First, beads were prepared for the purpose of detecting anti-FGFR3 antibody that is unbound to FGFR3 IIIc Fc. This was done by adding 1 ml recombinant human FGFR3IIIc Fc (R&D Systems, Inc.) 10 ug/ml in PBS to 200 mg polymethyl methacrylate (PMMA) hard beads. The suspension was mixed and rotated for two hours at room temperature. Next, the mixture was centrifuged and supernatant was discarded. The bead pellet was rinsed once with 1 ml BSA 10 mg/ml in PBS by incubation for 1 hour at room temperature with rotation. The beads were resuspended in 27 ml PBS with 0.02% NaN₃. Next, a fixed concentration of anti-FGFR3 antibody (0.5 nM) was incubated in solution with a series of FGFR3 IIIc Fc concentrations (started with 50 nM (in PBS BSA (1 mg/ml)) and serially diluted 1:2 in PBS BSA(1 mg/ml) to obtain 50 to 0.0122 nM FGFR3 III Fc) at room temperature for at least 4 hours to allow equilibrium to be reached. By measuring the amount of anti-FGFR3 antibody that is not bound to FGFR3 IIIc Fc, the KD was determined. Unbound anti-FGFR3 antibody was detected by allowing the anti-FGFR3 antibody/FGFR3 IIIc Fc solution to flow through the FGFR3 IIIc Fc PMMA beads. The anti-FGFR3 antibody captured by these beads was then detected with Cy5-conjugated anti-human secondary antibody 0.3 ug/ml (Jackson ImmunoResearch) or Cy5-conjugated anti-mouse secondary antibody (Jackson ImmunoResearch) 0.5 ug/ml in PBS BSA 1 mg/ml. The detected signal for captured anti-FGFR3 antibody is directly proportional to the remaining free binding sites, thus allowing KD determination. The experiments were repeated, varying the concentrations of anti-FGFR3 antibody or FGFR3 III Fc used in solution, and the KD was calculated with the KinExA® software using n-curve analysis.

Kd [nM]	Binder
0.0772	B1
0.0503	B2
